Source: patent publication US20180362668A1 (JIANGSU ALPHAMAB BIOPHARMACEUTICALS, published 2018)
Residue numbers refer to the chain shown, from its start. Names and notes keep the numbering of the source.

Columns and labels:
[1] = molecular target: the molecule itself; assay: non-reducing SDS-PAGE of Protein A-purified co-transfection product; chain A:chain B vectors 1:4
Excerpt: (§1) The respective transient transfection products were obtained through Protein A affinity chromatography.

[2] = molecular target: the molecule itself; assay: non-reducing SDS-PAGE of Protein A-purified co-transfection product; chain A:chain B vectors 4:1
Excerpt: as §1

[3] = molecular target: the molecule itself; assay: non-reducing SDS-PAGE densitometry of Protein A-purified co-transfection product; chain A:chain B vectors 1:1
[4] = molecular target: the molecule itself; assay: as above; remark: listed apart in the source
Excerpt: The cotransfection ratio of recombinant expression vector of the chain A to that of the chain B was 1:1.

[5] = molecular target: the molecule itself; assay: as above; remark: listed apart in the source
Excerpt: (§2) The cotransfection ratio of recombinant expression vector of the chain A to that of the chain B was 4:1, 1:1 and 1:4.

[6] = molecular target: the molecule itself; assay: non-reducing SDS-PAGE densitometry of Protein A-purified co-transfection product; chain A:chain B vectors 1:4
Excerpt: as §2

[7] = molecular target: the molecule itself; assay: non-reducing SDS-PAGE densitometry of Protein A-purified co-transfection product; chain A:chain B vectors 4:1
Excerpt: as §2

[8] = molecular target: the molecule itself; assay: non-reducing SDS-PAGE densitometry of Protein A-purified co-transfection product; chain A:chain B vectors 1:1; remark: listed apart in the source
Excerpt: (§3) The cotransfection ratio of recombinant expression vector of the chain A to that of the chain B was 4:1, 1:1 and 1:4. The transiently expressed culture supernatant was collected after 5-6 days of cultivation.

[9] = molecular target: the molecule itself; assay: non-reducing SDS-PAGE densitometry of Protein A-purified co-transfection product; chain A:chain B vectors 1:4; remark: listed apart in the source
Excerpt: as §3

[10] = molecular target: the molecule itself; assay: non-reducing SDS-PAGE densitometry of Protein A-purified co-transfection product; chain A:chain B vectors 4:1; remark: listed apart in the source
Excerpt: as §3

B1: ScFv-Fc fusion protein chain A with Y349C + T366W + K409A (Fc fusion)
chain: EVQLLESGGGVVQPGRSLRLSCIASGFTFSSYPMTWVRQAPGKGLEWVASISYDGSYKYKADSMKGRLTISRDNSKNTLYLEMNSLTAEDTAVYYCARTAFFNAYDFWGQGTLVTVSSASTKGPSVGGGGSGGGGSEIVMTQSPATLSVSPGERATLSCRASQSVRSNLAWYQQKPGQAPRLLIYAASTRATGIPARFSGSGSGTEFTLTISSLQSEDFAVYYCQQYNEWFRTSGQGTKVEIKRDKTHTCPPCPAPELLGGPSVFLFPPKPKDTLMISRTPEVTCVVVDVSHENPEVKFNWYVDGVEVHNAKTKPREEQYNSTYRVVSVLTVLHQDWLNGKEYKCKVSNKALPAPIEKTISKAKGQPREPQVCTLPPSRDELTKNQVSLWCLVKGFYPSDIAVEWESNGQPENNYKTTPPVLDSDGSFFLYSALTVDKSRWQQGNVFSCSVMHEALHNHYTQKSLSLSPGK
notes: Positions are EU index; also called combination 4 chain A
For B1, the “ScFv-Fc homodimer (%)” value [1] was 4%, the “ScFv-Fc homodimer (%)” value [2] was 46% and the “ScFv-Fc homodimer (%)” value [3] was 10%. The “ScFv-Fc homodimer (%)” value [4] was 21%, the “ScFv-Fc homodimer (%)” value [5] was 13% and the “ScFv-Fc homodimer (%)” value [6] was < 1%. For the same protein, the “ScFv-Fc homodimer (%)” value [7] was 46%.

B2: ScFv-Fc fusion protein chain A with T366W + K409A + Y349D (Fc fusion)
chain: B1 chain with C373D
notes: Positions are EU index; it is not used here; also called combination 12 chain A
For B2, the “ScFv-Fc homodimer (%)” value [5] was 14%, the “ScFv-Fc homodimer (%)” value [6] was 9% and the “ScFv-Fc homodimer (%)” value [7] was 48%.

B3: ScFv-Fc fusion protein chain A with T366W + K409A (Fc fusion)
chain: B1 chain with C373Y
notes: Positions are EU index; also called combination 11 chain A
With B3 the “ScFv-Fc homodimer (%)” value [5] was 15%, the “ScFv-Fc homodimer (%)” value [6] was 11% and the “ScFv-Fc homodimer (%)” value [7] was 52%.

B4: ScFv-Fc fusion protein chain A with T366W + F405K + D399S (Fc fusion)
chain: B1 chain with C373Y, D423S, F429K, A433K
notes: Positions are EU index; also called combination 15 chain A
For B4, the “ScFv-Fc homodimer (%)” value [8] was 6%, the “ScFv-Fc homodimer (%)” value [9] was < 1% and the “ScFv-Fc homodimer (%)” value [10] was 28%.

B5: ScFv-Fc fusion protein chain A with T366W + F405K (Fc fusion)
chain: B1 chain with C373Y, F429K, A433K
notes: Positions are EU index; also called combination 16 chain A
In the case of B5, the “ScFv-Fc homodimer (%)” value [8] is reported as 5%, the “ScFv-Fc homodimer (%)” value [9] is reported as 3% and the “ScFv-Fc homodimer (%)” value [10] is reported as 23%.

B6: ScFv-Fc fusion protein chain A with T366W + K409A + K392D (Fc fusion)
chain: B1 chain with C373Y, K416D
notes: Positions are EU index; also called combination 10 chain A
In the case of B6, the “ScFv-Fc homodimer (%)” value [5] is reported as 7%, the “ScFv-Fc homodimer (%)” value [6] is reported as < 1% and the “ScFv-Fc homodimer (%)” value [7] is reported as 39%.

B7: ScFv-Fc fusion protein chain A with T366W + F405K + Y349D + S354D (Fc fusion)
chain: B1 chain with C373D, S378D, F429K, A433K
notes: Positions are EU index; also called combination 18 chain A
For B7, the “ScFv-Fc homodimer (%)” value [8] was 9%, the “ScFv-Fc homodimer (%)” value [9] was 5% and the “ScFv-Fc homodimer (%)” value [10] was 29%.

B8: ScFv-Fc fusion protein chain A with Y349C + T366W + F405K (Fc fusion)
chain: B1 chain with F429K, A433K
notes: Positions are EU index; also called combination 2 chain A
With B8 the “ScFv-Fc homodimer (%)” value [1] was < 1%, the “ScFv-Fc homodimer (%)” value [2] was 23% and the “ScFv-Fc homodimer (%)” value [3] was 10%. For the same protein, the “ScFv-Fc homodimer (%)” value [4] was 17%, the “ScFv-Fc homodimer (%)” value [8] was 9% and the “ScFv-Fc homodimer (%)” value [9] was < 1%. For the same protein, the “ScFv-Fc homodimer (%)” value [10] was 28%.

B9: ScFv-Fc fusion protein chain A with T366W + K409A + Y349D + S354D (Fc fusion)
chain: B1 chain with C373D, S378D
notes: Positions are EU index; also called combination 13 chain A
In the case of B9, the “ScFv-Fc homodimer (%)” value [5] is reported as 10%, the “ScFv-Fc homodimer (%)” value [6] is reported as 2% and the “ScFv-Fc homodimer (%)” value [7] is reported as 37%.

B10: ScFv-Fc fusion protein chain A with Y349C + T366W + K409E (Fc fusion)
chain: B1 chain with A433E
notes: Positions are EU index; also called combination 3 chain A
In the case of B10, the “ScFv-Fc homodimer (%)” value [3] is reported as 25%.

B11: ScFv-Fc fusion protein chain A with Y349C + T366W (Fc fusion)
chain: B1 chain with A433K
notes: also called combination KH chain A; combination 1 chain A
In the case of B11, the “ScFv-Fc homodimer (%)” value [1] is reported as 10% and the “ScFv-Fc homodimer (%)” value [2] is reported as 52%.

B12: VhH-Fc fusion protein chain B with T366S + L368G + Y407A + K409A (Fc fusion)
chain: QVQLQESGGGSVQAGGSLRLSCAASEYIYSSYCMAWFRQAPGKEREGVAVIGSDGSTSYADSVKGRFTISKDNAKNTLYLQMNSLKPEDTAMYYCAAIGGYCYQPPYEYQYWGQGTQVTVSSEPKSSDKTHTCPPCPAPELLGGPSVFLFPPKPKDTLMISRTPEVTCVVVDVSHEDPEVKFNWYVDGVEVHNAKTKPREEQYNSTYRVVSVLTVLHQDWLNGKEYKCKVSNKALPAPIEKTISKAKGQPREPQVYTLPPSRDELTKNQVSLSCGVKGFYPSDIAVEWESNGQPENNYKTTPPVLDSDGSFFLASALTVDKSRWQQGNVFSCSVMHEALHNHYTQKSLSLSPGK
notes: Positions are EU index; also called combination 16 chain B
For B12, the “VhH-Fc homodimer (%)” value [8] was 7%, the “VhH-Fc homodimer (%)” value [9] was 4% and the “VhH-Fc homodimer (%)” value [10] was < 1%.

B13: VhH-Fc fusion protein chain B with T366S + L368G + Y407A + F405K (Fc fusion)
chain: B12 chain with F312K, A316K
notes: Positions are EU index; also called combination 11 chain B
In the case of B13, the “VhH-Fc homodimer (%)” value [5] is reported as 0%, the “VhH-Fc homodimer (%)” value [6] is reported as 0% and the “VhH-Fc homodimer (%)” value [7] is reported as 0%.

B14: Fc protein chain B with D356C + T366S + L368A + Y407V + F405K + K360E + Q347E (other)
chain: DKTHTCPPCPAPELLGGPSVFLFPPKPKDTLMISRTPEVTCVVVDVSHEDPEVKFNWYVDGVEVHNAKTKPREEQYNSTYRVVSVLTVLHQDWLNGKEYKCKVSNKALPAPIEKTISKAKGQPREPEVYTLPPSRCELTENQVSLSCAVKGFYPSDIAVEWESNGQPENNYKTTPPVLDSDGSFKLVSKLTVDKSRWQQGNVFSCSVMHEALHNHYTQKSLSLSPGK
notes: also called combination 8 chain B
With B14 the “Proportion of Fc homodimer (%)” value [4] was 8%.
